Laboratory results: patent US20250011456A1, “ANTIBODIES AGAINST CD14 AND USES THEREOF” (Villanelle Life Science Inc, priority 2023, published 2025)
Where “and” joins values, the source holds several entries; their conditions need not be identical. Equal values may be shown once.

Experiment: Mouse weight under anti-CD14-IgG1 dosages of Example 7 (PDX mice)
Format: in vivo
Conditions: per mouse 1-5
Method: To evaluate concentrations for the anti-CD14-IgG1 antibody, PDX mice were treated with five different concentrations of the IgG1 antibody over a period of 28 days. For these experiments, drug administration on the PDX mice was performed intravenously on alternating 4 days and 3 days.
The five different concentrations of the anti-CD14-IgG1 antibody tested include 5 mg/kg, 10 mg/kg, 15 mg/kg, 25 mg/kg, and 40 mg/kg. A control regimen was utilized as a comparative example. […] The non-specific IgG1 has no binding affinity to antigen. […] Tumor weight and tumor volume were calculated as described above.

B1: D6DD3D001: mouse-derived anti-CD14 IgG1 antibody; VH SEQ ID NO: 1, VL SEQ ID NO: 3, heavy chain SEQ ID NO: 2, light chain SEQ ID NO: 4 (antibody)
heavy: DVQLQQSGPGLVKPSQSLSLTCTVTGYSITSDSAWNWIRQFPGNRLEWMGYISYSGSTSYNPSLKSRISITRDTSKNQFFLQLNSVTTEDTATYYCVRGLRFAYWGQGTLVTVSSPSVFLFPPKPKDTLMISRTPEVTCVVVDVSHEDPEVKFNWYVDGVEVHNAKTKPREEQYNSTYRVVSVLTVLHQDWLNGKEYKCKVSNKALPAPIEKTISKAKGQPREPQVYTLPPSREEMTKNQVSLTCLVKGFYPSDIAVEWESNGQPENNYKTTPPVLDSDGSFFLYSKLTVDKSRWQQGNVFSCSVMHEALHNHYTQKSLSLSPGK
light: DIVLTQSPASLAVSLGQRATISCRASESVDSYVNSFLHWYQQKPGQPPKLLIYRASNLQSGIPARFSGSGSRTDFTLTINPVEADDVATYYCQQSNEDPYTFGGGTKLEIKRTVAAPSVFIFPPSDEQLKSGTASVVCLLNNFYPREAKVQWKVDNALQSGNSQESVTEQDSKDSTYSLSSTLTLSKADYEKHKVYACEVTHQGLSSPVTKSFNRGEC
Day 0, IgG1 (10 mg/kg), 10 mg/kg
  Mouse Weight: 19.83 g and 20.73 g and 20.13 g and 20.77 g and 19.27 g
Day 0, IgG1 (15 mg/kg), 15 mg/kg
  Mouse Weight: 20.37 g and 19.02 g and 20.34 g and 19.62 g and 19.24 g
Day 0, IgG1 (25 mg/kg), 25 mg/kg
  Mouse Weight: 19.63 g and 20.3 g and 19.71 g and 20.07 g and 20.02 g
Day 4, IgG1 (5 mg/kg), 5 mg/kg
  Mouse Weight: 20.33 g and 20.63 g and 19.58 g and 19.86 g and 20.45 g
Day 4, IgG1 (10 mg/kg), 10 mg/kg
  Mouse Weight: 19.89 g and 20.39 g and 19.36 g and 20.74 g and 20.98 g
Day 4, IgG1 (15 mg/kg), 15 mg/kg
  Mouse Weight: 20.83 g and 19.54 g and 20.87 g and 20.44 g and 20.68 g
Day 4, IgG1 (25 mg/kg), 25 mg/kg
  Mouse Weight: 20.75 g and 19.2 g and 20.99 g and 20.16 g and 20.55 g
Day 7, IgG1 (5 mg/kg), 5 mg/kg
  Mouse Weight: 20.95 g and 20.07 g and 20.36 g and 20.83 g and 20.56 g
Day 7, IgG1 (10 mg/kg), 10 mg/kg
  Mouse Weight: 20.81 g and 19.35 g and 19.89 g and 20.23 g and 21.08 g
Day 7, IgG1 (15 mg/kg), 15 mg/kg
  Mouse Weight: 19.65 g and 20.62 g and 20.38 g and 20.56 g and 20.71 g
Day 7, IgG1 (25 mg/kg), 25 mg/kg
  Mouse Weight: 20.86 g and 20.2 g and 20.76 g and 21.38 g and 20.06 g
Day 11, IgG1 (5 mg/kg), 5 mg/kg
  Mouse Weight: 20.85 g and 20.72 g and 20.22 g and 21.21 g and 20.94 g
Day 11, IgG1 (10 mg/kg), 10 mg/kg
  Mouse Weight: 20.77 g and 20.5 g and 20.97 g and 21.03 g and 20.94 g
Day 11, IgG1 (15 mg/kg), 15 mg/kg
  Mouse Weight: 20.35 g and 20.89 g and 21.32 g and 21.08 g and 20.47 g
Day 11, IgG1 (25 mg/kg), 25 mg/kg
  Mouse Weight: 20.11 g and 20.4 g and 19.5 g and 20.84 g and 21.5 g
Day 14, IgG1 (5 mg/kg), 5 mg/kg
  Mouse Weight: 20.75 g and 21.06 g and 20.89 g and 21.69 g and 20.67 g
Day 14, IgG1 (10 mg/kg), 10 mg/kg
  Mouse Weight: 20.15 g and 20.69 g and 21.19 g and 21.53 g and 20.71 g
Day 14, IgG1 (15 mg/kg), 15 mg/kg
  Mouse Weight: 20.47 g and 21.16 g and 21.65 g and 20.87 g and 21.13 g
Day 14, IgG1 (25 mg/kg), 25 mg/kg
  Mouse Weight: 20.13 g and 21.05 g and 20.39 g and 21.39 g and 21.62 g
Day 18, IgG1 (5 mg/kg), 5 mg/kg
  Mouse Weight: 21.11 g and 21.36 g and 20.44 g and 20.69 g and 21.33 g
Day 18, IgG1 (10 mg/kg), 10 mg/kg
  Mouse Weight: 21.27 g and 20.66 g and 21.04 g and 20.85 g and 21.37 g
Day 18, IgG1 (15 mg/kg), 15 mg/kg
  Mouse Weight: 20.73 g and 21.69 g and 20.31 g and 20.9 g and 21.29 g
Day 18, IgG1 (25 mg/kg), 25 mg/kg
  Mouse Weight: 21.14 g and 21.03 g and 20.46 g and 21.57 g and 21.77 g
Day 21, IgG1 (5 mg/kg), 5 mg/kg
  Mouse Weight: 20.92 g and 21.85 g and 21.42 g and 21.87 g and 21.66 g
